Experimental data: paper PMC2873410

How the values were obtained:
Test in all cases: cross-linking; lysate (hypotonic buffer) of Sf9 cells expressing the V5-tagged protein, 0.01% glutaraldehyde at room temperature for various times; Western blot with anti-V5 antibody
[1] = target: WSSV structural protein VP19, full length, V5- or FLAG-tagged (white spot syndrome virus (WSSV-TW strain))
[2] = target: WSSV structural protein VP24, full length, V5- or FLAG-tagged (white spot syndrome virus (WSSV-TW strain))
[3] = target: WSSV structural protein VP51A, full length, V5- or FLAG-tagged (white spot syndrome virus (WSSV-TW strain))

**Q.** Which stoichiometry N [1] does the source give for “WSSV structural protein VP19, full length, V5- or FLAG-tagged (natural protein)” here?
**A.** 2

**Q.** With “WSSV structural protein VP24, full length, V5- or FLAG-tagged (natural protein)” as the substance, how does the stoichiometry N [2] read?
**A.** 2

**Q.** With “WSSV structural protein VP51A, full length, V5- or FLAG-tagged (natural protein)” as the substance, how does the stoichiometry N [3] read?
**A.** 2
